Measured values from paper PMC8752090.

Target: adaptor protein complex 2 (AP-2), P17426;Q9DBG3;P84091;P62743
Test: GST pull-down from brain lysate, immunoblot band quantification
Details: chain shown with the change; n = 3 independent experiments; parent: est. 1.0; read off a plot

ratio to parent: 0.19
B1: GST-VGLUT1 C-terminus-WT (cytoplasmic C-terminal region of VGLUT1, a.a. 496-560), Q3TXX4 F510A; V511A (protein)
chain: PWAEPEEMSEEKCGAAGHDQLAGSDESEMEDEAEPPGAPPAPPPSYGATHSTVQPPRPPPPVRDY
